From the nanobody polyreactivity screen of Harvey et al. (2022)

Assay: yeast display, Sf9 membrane polyspecificity reagent, FACS + sequencing; frameworks hold sequencing errors
Outline: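 Polyreactivity labels are assigned by the sorting gate from which each nanobody was recovered. The gates were low and high (top ~1%), set on anti-HA fluorescence for expression and streptavidin fluorescence for reagent binding. Before sorting, galactose-induced (36–48 hours) yeast display cells were stained for 1 hour at 4 °C with 10% biotinylated, detergent-solubilized Sf9 membrane reagent.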

Sequence | polyreactivity (PSR sort gate)
QVQLVESGGGLVQAGGTLRISCAPSGSTCVVINMGWYRQAPGKERELVAAISYSGGSTYADSVKGRFTISRDNAKNTVYLQMNSLKLEDTAVYYCAARHYWWYDYWGQGTQVTVSS | low polyreactivity
QVQLVESGGGLVQAGGTLRLICAASAFIFDGYTMGWYRQAPGTERELVAAISRSGGRTYYADSVKGRFTISRDNAKNTVYLQMNSQKPEDTAVYDCAVRYRQYSQNLASDYGYWGQGTQVTVSS | high polyreactivity
QVQLVESGGGLVQAGGTLRLICAASGRISLRNGMGWYRQAPRKERELVAAITSGSSTDYADSVKGRFTISRDNAKNTVYLQMNSLKPEDTAVYYCAKDLLQSGPGAGRYDYWGQGTQVTVSS | low polyreactivity
QVQLVESGGGLVQAGGTLRLSCAASGGIFTDYTMGWYRQAPGKERELVAAITWTGGSTYYADSVKGRFTISRDNAKNTVYLQMNSLKPEDTAVYYCAADDYWVNLDYWGQGTQVTVSS | low polyreactivity
QVQLVESGGGLVQAGGTLRLSCAASGGIIAINAMVWYRQAPGKERELVAAISWGDGITYYADSVKGRFTISRDNAKNTVYLQMNSLKPEDTAVYYCAADEDEYRGGDETWGQGSQVTVSS | low polyreactivity
QVQLVESGGGLVQAGGTLRLSCAASGGTSRSYAMVWYRQAPGKERELVAAISWRGGRTYYADSVKGRFTISRDNAKNTVYLQMNSLKPEDTAVYYCAARQYSQETYDYWGQGSQVTVSS | high polyreactivity
QVQLVESGGGLVQAGGTLRLSCAASGIIFSFYTMGWYRQAPGKERELVAAITWSGGSTYYADSVKGRFTISRANAKNTVYLQMNSLKPEDTAVYYCNARNPWRKRSQGYSWGQGTQVTVSS | low polyreactivity
QVQLVESGGGLVQAGGTLRLSCAASGITFEHYAMGWYRQAPGKERELVAAINRSGDNTYYADSVKGRFTISRYNAKNTFYLQMNSLKPEDTAVYYCNTVELYWRGYDYWGQGTQVTVSS | high polyreactivity
QVQLVESGGGLVQAGGTLRLSCAASGLTFARYAMGWYRQAPGKERELVAGIDSTGGTTYYADSVKGRFTISRDNAKNTFYLQMISLIPEDTAVYYCNTGGTFLDWVRSPFGFGYWGQGTQVTVSS | low polyreactivity
QVQLVESGGGLVQAGGTLRLSCAASGRIFQYYDMGWYRQAPGKERELVAAITFSGGSTYYADSVKGRFTISRDNAKNTVYLQMNSLKPEDTAVYYCARGYWVYYPDGDYWGQGTQVTVSS | low polyreactivity
QVQLVESGGGLVQAGGTLRLSCAASGRIFVINTMGWYRQAPGKERELVAAISRGGSTNYADSLKGRFTISRDNAKNTVYLQMNSLKPEDTAVYYCAATGYILFAGGGYDYWGQGTQVTVSS | low polyreactivity
QVQLVESGGGLVQAGGTLRLSCAASGRIISYNPMGWYRAAAGKEMELVAPINWGGGSTYYADSVKGRFTISRDNAKNTVYLQMNSLKPEDTAVYYCNADSNWYYQWNYYGLYDYWGQGTQVTVSS | low polyreactivity
QVQLVESGGGLVQAGGTLRLSCAASGSIFANYAMGWYRQAPGKERELVASISSGDSTNYADSVKGRFTISRDNAKNTVYLQMNSLKPEDTAVYYCASTFVGGIWSGYNYWGQGTQVTVSS | low polyreactivity
QVQLVESGGGLVQAGGTLRLSCAASGSIFLINAMGWYRPAPGKERELVAAISRSGGRTYYADSVKGRFTISRDNAKNTVYLQMNSLKPEDTAVYYCAVPSIYYAGRAYDYWGQGTQVSVSS | high polyreactivity
QVQLVESGGGLVQAGGTLRLSCAASGSIFRRKVMVWYRQAPGKERELVAAMSWSGDRTYYADSVKGRFTISRDNAKNTVYLQMNSLKPEDTAVYYCAAANASPRRYGQYDDWGQGTQVTVSS | high polyreactivity
QVQLVESGGGLVQAGGTLRLSCAASGSIFYRYDMGWYRPAPGKERELVAAITWSGGSTYYADSVKGRFTISRDNAKNTVYLQMNSLKPEDTAVYYCNAPGDGYLYDHTYDYWGQGTQVTVSS | low polyreactivity
QVQLVESGGGLVQAGGTLRLSCAASGSISIRNAMGWYRQAPGKERELVAAITYSGGSTYYADSVKGRFTISRDNAKNTVYLQMNSLKPEDTAVYYCAKDHYRFRYDYWGQGTQVTVSS | low polyreactivity
QVQLVESGGGLVQAGGTLRLSCAASGSTFLINAMGWYRQAPGKERELVAAISWGGGSTYYADSVKGRFTISRDNGKNSVDLQMNRLTPEDTAVYYCAARYWYRVDYWGQGTQVTVSS | high polyreactivity
QVQLVESGGGLVQAGGTLRLSCAASGYTLKWYTMGWYRQAPGKERELVATIRRGGGTYYADSVKGRFTISRDNAKNTVYLQMNSLKPVDTPVYYCAAEWSSVYNYDYWGQGTQVTVSS | low polyreactivity
QVQLVESGGGLVQAGGTLRLSCAASVFTFYYNTMGWYRQAPGKERELVAGIDISGSSTYADSVKGRFTISRDNAKNTVYLQMNSLKPEDTAVYYCAAVYFWGMDYWGQGTQVTVSS | low polyreactivity
QVQLVESGGGLVQAGGTLRLSCAASVSTIAQNAMGWYRQAPGKEREFVAAITGTVGSTYYADSVKGRFTISRDNAKNTVYLQMKSLKPEDTAVYYCNTRGFNGRVYPYDYWGQGTQVTVSS | low polyreactivity
QVQLVESGGGLVQAGGTLRLSCAATRSTFYPYAMGWYRQAPGKERELVAAISDGDSTNYADSVKGRFTISRDNAKNTVSLQMNSVKPEDTAVYYCNADYVRIFYSYYGYHDYDYWGQGTQVTVSS | low polyreactivity

Sequence | polyreactivity (PSR sort gate)
QVQLVESGGGLVQAGGTLRLSCADSGSTFAGNGMGWYRQAPGKERQLVAGIDVTGGSTYYADSVKGRFTISRDNAKNTVYLQMNSLKPEDTAVYYCAARVVRYGYKYYYWGQGTQVTVSS | low polyreactivity
QVQLVESGGGLVQAGGTLRLSCAPSGSIFTFYAMGWYRQAPGKERELVAAITRSGGSTYYADSVKGRFTISRDNAKNTVYLQMNSLKPEDTAVYYCAKDPSSYVTYRYYYWGQGSQVTVSS | low polyreactivity
QVQLVESGGGLVQAGGTLRLSCAPSGSTFYANTMGWYRPAPGKERELVATISWTGSSTYYADSVKGRFTISRDNAKNTVYLQMNSLNPEDTAVYYCNKRYYYRRNYWGQGTQVTVSS | high polyreactivity
QVQLVESGGGLVQAGGTLRLSCSASGIISTYYAMGWYRQAPGKERELVAAITSGGSTYYADSVKGRFTISRDNAKNTVYLQMNSLKPEDTAVYYCATRRIYKWYRYYYWGQCTQVTVSS | high polyreactivity
QVQLVESGGGLVQAGGTLRLSWAASGSNFGFYTMGWYRLAPGKERELVAAITWSDSSTYADSVKGRYTISRDNAKNTVYLQMNSLKPEDTAVYYCNADTTTVEYYPFHYYTYDYWGQGTQVTVSS | low polyreactivity
QVQLVESGGGLVQAGGTLRLTCAASGLTFGSNAMGWYRTAPGKERELVAAISVSGSTYYADSVKGRFTISRDNAKNTVYLLMNSLKPEDTAVYYCATYWAAGSRSRYASWGQGTQVTVSS | high polyreactivity
QVQLVESGGGLVQAGRSLRLICAASGRILGGNTMGWYRQAPGKERELVAGISYSGGRTYYADSVQRRFTISRDNAKHTFYLQMNSLKPEDTAVYYCNVPLGRGRKIAYGYWGQGTQVTVSS | high polyreactivity
QVQLVESGGGLVQAGRSLRLICAASGRILVPYTMGWYRQAPGKERDLVAAITIGGRTTYADSVKGRLTISRDNAKNTLYLQMNIMKPEDTAVYYCAKRDWRYEWYGYDYWGQGTQVTVSS | low polyreactivity
QVQLVESGGGLVQAGRSLRLICAASGSIFDWYAMGWYRQAPGKEGELVAAISSGDSTYYADSVKGRFTISRDNAKNTVYLQMNSLKPEDTAVYYCAAVTKLSGIRYHYWGQGTQVTVSS | low polyreactivity
QVQLVESGGGLVQAGRSLRLRCPASGLTINSYAMGWYRQAPGKERELVAAIDWSGGRTYYADSVKGRFTISRDNAKNTVYLQMNSLKPEDTAVYYCAAYSRNRALRFNYWGQGTQVTVSS | high polyreactivity
QVQLVESGGGLVQAGRSLRLSCAASGFIFDWNAMGWYRQAPGKERELVAAISWSGGRTYYADSVKGRFTISRDNAKNTVYLQMNSLKPEDTAVYYCNARRYFSRDTSGYNYWGQGTQVTVSS | high polyreactivity
QVQLVESGGGLVQAGRSLRLSCAASGFIFRWYAMGWYRQAPGKERELVAGLTSGDNTYYADSVKGRFTISRDNAKNTVYLQMNSLKPEDTAVSYCAADGWLWSFTGDGWWFDYWGQGTQVTVSS | low polyreactivity
QVQLVESGGGLVQAGRSLRLSCAASGFIFRYYAMGWYRQAPGKETELVAAIRGGGSTYYADSVKGRFTISRDNAKNTVYLQMKSLNPEDTAVYYCAVRWVSRFGISSYDYWGQGTQVTVSS | high polyreactivity
QVQLVESGGGLVQAGRSLRLSCAASGFIFWSNTKGWYRQAPGKERELVAAISYSGARTYYADSVKGRFTISRDNAKNTVYLLMNSLKPEDTAVYDCAAYLWGTHDRMDYWGQGTQVTVSS | high polyreactivity
QVQLVESGGGLVQAGRSLRLSCAASGIIFEWNGMGWYRQAPGKERELVAALPWSGGSTYYADSVKGRFTISRDNAKNTVYLQMNSLKPEDTAVYYCNAYWKDDFEDGPGRRGMDYWGQGSQVTVSS | low polyreactivity
QVQLVESGGGLVQAGRSLRLSCAASGITFESYAMGWYRQAPGKEREFVAAISRSSGSTYYADSVKGRFTISRDNAKNTVYLQMNSLKPEDTAVYYCATRSFRDDGFGRYYYWGQGTLVTVSS | high polyreactivity
QVQLVESGGGLVQAGRSLRLSCAASGLIFYCYVMGWYRQAPRKERELVAGISRNSGSTYYADSVKGRFTISRDNAKNTVYLQMNSLKPEDTAVYYCAKAYYRRYAAPGYDYWGQVTQVTVSS | low polyreactivity
QVQLVESGGGLVQAGRSLRLSCAASGLTFSAYAMGWYRQAPGKEREFVAAITDSDGSTYYADSVKGRFTITRDNAKNTVYLQMNSLKPEDTAVYYCAASGSWYYGNWSGGYDYWGQGTQVTVSS | low polyreactivity
QVQLVESGGGLVQAGRSLRLSCAASGRIFRQNAMGWYRPAPGKETELVAAIDWNGTSTYADSVKGRFTISRDNAKNTVYFQLNSLKPVDTAVYYCTARYGRTSPDGDYWGQGTQVTVSS | low polyreactivity
QVQLVESGGGLVQAGRSLRLSCAASGRNFTYYAMGWDRQAPGKERELVAAISGSAGSTYYADSVKGRFTISRDNAKNTVYLQMNSLKPEDTAVYYCNAVLVRQRDRGGYWGQGTQVTVSS | high polyreactivity
QVQLVESGGGLVQAGRSLRLSCAASGRTFGGNAMGWYRQAPGKERELVAAIDQSGGSTYYADSVKGRFTISRDNAKNTVYLQMNSLKPEDTAVYYCATHDGGTYYVREPNVKYDYWGQVTQVTVSS | low polyreactivity
